In patent publication US20130273567A1, “Screening Method for Candidate Agonist Compounds for Adiponectin Receptor I” (priority 2010, published 2013):

Assays:
CaMKI = CaMKI phosphorylation in skeletal muscle in vivo; set-up: species or system mice; details: adiponectin 30 μg per 10 g body weight, 5 min; via AdipoR1
Description: (§1) Mouse full-length adiponectin was generated as described in the following documents (Nature Med. 8, 1288-1295 (2002); Nature Med. 7, 941-946 (2001); Nature 423, 762-769 (2003)).

C2C12 myocytes [1] = assay: NAD+/NADH measurements in C2C12 myocytes; assay type: cell-based, mouse; details: C2C12 myocytes treated with adiponectin
Experimental: NAD^+ and NADH nucleotides were directly measured by the method described in the following document (Nature, 458, 1056-1060 (2009)). Whole skeletal muscles or two 10 cm dishes of C2C12 myocytes were homogenized in 200 μl of an acid extraction buffer to measure the NAD^+ concentration, or 200 μl of alkali extraction to obtain the NADH concentration. Next, homogenates were neutralized and the concentration of nucleotides was measured fluorimetrically after an enzymatic cycling reaction using 5 μl of a sample. Values for both nucleotides were detected within the linear range. NAD^+/NADH ratios were calculated by comparing the ratios obtained from each animal or from parallel cell dishes in each experiment.

AMPK [2] = assay: AMPK phosphorylation in C2C12 myocytes (immunoblotting); assay type: cell-based, mouse; details: C2C12 myocytes, adiponectin 30 μg/ml
Experimental: (§2) The mouse C2C12 myoblasts were grown in 90% Dulbecco's modified high glucose Eagle's medium containing 10% (v/v) fetal bovine serum. When the cells reached 80% confluent, the myoblasts were induced to differentiate into myocytes by replacing the medium with a low serum differentiation medium (98% Dulbecco's modified high glucose Eagle's medium, 2.5% (v/v) horse serum). The medium was changed daily. The C2C12 cells were transfected by using Pofectamine 2000 (Invitrogen) and following the manufacturer's instructions.

PGC-1α = PGC-1α acetylation (acetyl-lysine on immunoprecipitates) in C2C12 myocytes; assay type: cell-based, mouse; details: treatment for 2 hr
Experimental: as §2

PGC-1α (Ppargc1a) = assay: Ppargc1a mRNA levels in skeletal muscle treated with adiponectin; assay type: in vivo, mice; details: control littermates; adiponectin 30 μg per 10 g body weight, 10 min
Experimental: as §1
(§3) Real-time PCR was carried out according to the method described in the following documents (Nature Med. 13, 332-339 2007); Nature 423, 762-769 (2003); J. Biol. Chem. 281, 8748-8755 (2006)). Total RNA was prepared from cells or tissues by using Trizol (Invitrogen) according to the manufacturer's instructions. Quantification of mRNA was conducted using a real-time PCR method (Nature 423, 762-769 (2003)) with slight modifications. The procedures used for immunoblotting are described in the following documents (Nature Med. 7, 941-946 (2001); J. Biol. Chem. 281, 26602-26614 (2006); J. Biol. Chem. 281, 8748-8755 (2006)). The livers or muscles were freeze-clamped in liquid nitrogen in situ (Nature Med. 7, 941-946 (2001); J. Biol. Chem. 281, 26602-26614 (2006); J. Biol. Chem. 281, 8748-8755 (2006)).

AMPK [3] = assay: AMPK phosphorylation in vivo (skeletal muscle and liver, immunoblotting); set-up: species or system mice; details: adiponectin 30 μg per 10 g body weight, 10 min
Experimental: as §1, §3

C2C12 myocytes [4] = assay: Mitochondrial content assay in C2C12 myocytes (mtDNA copy number, MitoTracker Green); assay type: cell-based, mouse
Experimental: Mice used were from 8 to 10 week old at the time of the experiment. […] Induction of myogenic differentiation using C2C12 cells was carried out according to the method described in the following document (Nature Med. 8, 1288-1295 (2002)). By day 5, the cells had differentiated into multinucleated contracting myocytes. C2C12 myocytes were used after myogenic differentiation in all experiments.
as §2
Mitochondrial content assays were carried out as described in the following document (Cell Metab. 4, 75-87 (2006)), with slight modifications. Quantification of the mitochondrial content was conducted by using mtDNA and MitoTracker Green probe (Molecular Probes) according to the method as described in the following document (Obes. Res. 13, 574-581 (2005)). MitoTracker Green probe preferentially accumulates in mitochondria regardless of the mitochondrial membrane potential and provides an accurate assessment of mitochondrial mass. Cells were washed with PBS and after addition of 100 nM MitoTracker Green FM (Molecular Probes), incubated at 37° C. for 30 min. Cells were harvested by using trypsin/EDTA and resuspended in PBS. Fluorescence intensity was detected with excitation and emission wavelengths of 490 and 516 nm, respectively, and the values thus measured were corrected for total protein (mg/ml).

AdipoR1 = biological target: T1, AdipoR1 (Mus musculus, UniProt Q91VH1); assay: Calcium imaging in C2C12 myocytes (fura-2); assay type: cell-based; set-up: endogenous in cells; host or cells: mouse C2C12 myocytes (differentiated from myoblasts)
T1 sequence (Q91VH1 1-375): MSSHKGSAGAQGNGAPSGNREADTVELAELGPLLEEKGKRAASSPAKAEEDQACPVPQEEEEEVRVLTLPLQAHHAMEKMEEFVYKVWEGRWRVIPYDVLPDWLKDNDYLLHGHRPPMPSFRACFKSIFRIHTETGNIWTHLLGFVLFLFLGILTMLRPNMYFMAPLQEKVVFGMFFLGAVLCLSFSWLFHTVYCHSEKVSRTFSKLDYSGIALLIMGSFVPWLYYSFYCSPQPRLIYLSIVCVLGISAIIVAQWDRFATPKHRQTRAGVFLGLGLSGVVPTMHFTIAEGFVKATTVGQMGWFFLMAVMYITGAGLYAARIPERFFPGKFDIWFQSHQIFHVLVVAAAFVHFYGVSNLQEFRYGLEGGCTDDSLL
Experimental: C212 myocytes cultured on glass base dishes (IWAKI) were treated with 2.5 μM fura-2/AM for 30 min. Fluorescence was measured with an Aquacosmos Calcium Imaging system (Hamamatsu Photonics). Ligands were delivered through the superfusing Ringer's solution (140 mM NaCl, 5.6 mM KCl, 5 mM HEPES, 2.0 mM sodium pyruvate, 1.25 mM KH2PO4, 2.0 mM CaCl2, 2.0 mM MgCl2, 9.4 mM D-glucose (pH 7.4)). For the calcium chelating experiment, EGTA solution (140 mM NaCl, 5.6 mM KCl, 5 mM HEPES, 2.0 mM sodium pyruvate, 1.25 mM KH2PO4, 2.0 mM MgCl2, 5.0 mM EGTA-2Na, 9.4 mM D-glucose (pH 7.4) was used for the bath solution. Fura-2 fluorescence ratios were calibrated to calcium ion signals.

[5] = C2C12 myocytes incubated with 30 μg/ml adiponectin

dose dependence of calcium response (AdipoR1): dose-dependent responses
intracellular calcium ion concentration (fura-2-based fluorescent imaging) (AdipoR1; adiponectin 30 μg/ml, 1 min): increased
B1: adiponectin: recombinant murine full-length adiponectin, internal ligand of adiponectin receptor 1 (protein, UniProt Q60994 1-247, looked up)
chain: MLLLQALLFLLILPSHAEDDVTTTEELAPALVPPPKGTCAGWMAGIPGHPGHNGTPGRDGRDGTPGEKGEKGDAGLLGPKGETGDVGMTGAEGPRGFPGTPGRKGEPGEAAYVYRSAFSVGLETRVTVPNVPIRFTKIFYNQQNHYDGSTGKFYCNIPGLYYFSYHITVYMKDVKVSLFKKDKAVLFTYDQYQEKNVDQASGSVLLHLEVGDQVWLQVYGDGDHNGLYADNVNDSTFTGFLLYHDTN
modifications: full-length
phosphorylation of CaMKI in skeletal muscle in vivo (CaMKI): significantly increased
NAD+ and NADH contents (C2C12 myocytes [1]): increased
NAD+/NADH ratio (C2C12 myocytes [1]): increased
phosphorylation of AMPK α-subunits at Thr 172 (AMPK [2]): increased
PGC-1α acetylation (PGC-1α): decreased
expression levels of Ppargc1a in muscle (PGC-1α (Ppargc1a)): increased
phosphorylation of AMPK in liver (AMPK [3]; both genotypes (control and muscle-R1KO)): increased
phosphorylation of AMPK in muscle (AMPK [3]; control littermates): increased
mitochondrial biogenesis (C2C12 myocytes [4]; C2C12 myocytes expressing PGC-1α-R13 mutant): failed to further induce
amount of mitochondria as assessed by MitoTracker green (C2C12 myocytes [4]; [5]): increased
mitochondrial DNA content (C2C12 myocytes [4]; [5]): increased
